Experimental data reported in patent publication US12180280 (dated 2024).
Positions count from the first letter of the chain named.

T1: monkey CD3 epsilon (cynomolgus monkey, UniProt Q95LI5)
T1 chain: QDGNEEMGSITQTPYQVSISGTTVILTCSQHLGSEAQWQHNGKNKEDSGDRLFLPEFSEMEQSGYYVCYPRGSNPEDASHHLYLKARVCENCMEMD

T2: human CD3 epsilon (human, UniProt P07766)
T2 chain: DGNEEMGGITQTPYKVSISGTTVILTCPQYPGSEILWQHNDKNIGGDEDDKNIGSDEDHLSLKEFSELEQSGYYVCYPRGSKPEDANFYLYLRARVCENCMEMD

B1: 15H2L3 (antibody, V domains shown)
VH: EVQLLESGGGLVQPGGSLRLSCAASGFTFNTYAMNWVRQAPGKGLEWVARIRSKYNNYATYYAISVKDRFTISRDNSKNTLYLQMNSLRAEDTAVYYCVKHGNFGNSYLSYWAYWGQGTLVTVSS
VL: QAVVTQEPSLTVSPGGTVTLTCQSSTGAVTTNNYANWVQQKPGHAFRGLIGGTKQRAPGVPARFSGSLLGGKAALTLSGVQPEDEAEYYCVLWYSNLWVFGGGTKLTVL
B2: 15H3L3 (antibody, V domains shown)
VH: B1 VH with N76D, V95M, K100R
VL: B1 VL
B3: 15H2L2 (antibody, V domains shown)
VH: B1 VH
VL: B1 VL with A2T, H44Q, F46P, G48A, V60T
B4: 26H3L3 (antibody, V domains shown)
VH: B1 VH with I64D, N76D, V95M, K100R, L109I, Y111W
VL: B1 VL with Q23K, N32S, K54N, Q55L, R56H, V91A
B5: 26H2L3 (antibody, V domains shown)
VH: B1 VH with I64D, L109I, Y111W
VL: B1 VL with Q23K, N32S, K54N, Q55L, R56H, V91A
B6: 15H3L2 (antibody, V domains shown)
VH: B1 VH with N76D, V95M, K100R
VL: B1 VL with A2T, H44Q, F46P, G48A, V60T
B7: CD20-TCB (CD3 arm) (antibody)
chain 1: not shown
chain 2: QVQLVQSGAEVKKPGSSVKVSCKASGYAFSYSWINWVRQAPGQGLEWMGRIFPGDGDTDYNGKFKGRVTITADKSTSTAYMELSSLRSEDTAVYYCARNVFDGYWLVYWGQGTLVTVSSASTKGPSVFPLAPSSKSTSGGTAALGCLVEDYFPEPVTVSWNSGALTSGVHTFPAVLQSSGLYSLSSVVTVPSSSLGTQTYICNVNHKPSNTKVDEKVEPKSCDKTHTCPPCPAPEAAGGPSVFLFPPKPKDTLMISRTPEVTCVVVDVSHEDPEVKFNWYVDGVEVHNAKTKPREEQYNSTYRVVSVLTVLHQDWLNGKEYKCKVSNKALGAPIEKTISKAKGQPREPQVCTLPPSRDELTKNQVSLSCAVKGFYPSDIAVEWESNGQPENNYKTTPPVLDSDGSFFLVSKLTVDKSRWQQGNVFSCSVMHEALHNHYTQKSLSLSP
chain 3: EVQLLESGGGLVQPGGSLRLSCAASGFTFSTYAMNWVRQAPGKGLEWVSRIRSKYNNYATYYADSVKGRFTISRDDSKNTLYLQMNSLRAEDTAVYYCVRHGNFGNSYVSWFAYWGQGTLVTVSSASVAAPSVFIFPPSDEQLKSGTASVVCLLNNFYPREAKVQWKVDNALQSGNSQESVTEQDSKDSTYSLSSTLTLSKADYEKHKVYACEVTHQGLSSPVTKSFNRGEC
chain 4: DIVMTQTPLSLPVTPGEPASISCRSSKSLLHSNGITYLYWYLQKPGQSPQLLIYQMSNLVSGVPDRFSGSGSGTDFTLKISRVEAEDVGVYYCAQNLELPYTFGGGTKVEIKRTVAAPSVFIFPPSDRKLKSGTASVVCLLNNFYPREAKVQWKVDNALQSGNSQESVTEQDSKDSTYSLSSTLTLSKADYEKHKVYACEVTHQGLSSPVTKSFNRGEC
B8: MBS303-2 (CD3 arm) (antibody, V domains shown)
VH: B1 VH with N76D, V95M, K100R
VL: B1 VL
B9: MBS303-1 (CD3 arm) (antibody, V domains shown)
VH: B1 VH
VL: B1 VL
B10: 19-37 (antibody, V domains shown)
VH: EVKLLESGGGLVQPKGSLKLSCAASGFTFNTYAMNWVRQAPGKGLEWVARIRSKYNNYATYYAISVKDRFTISRDDSQSILYLQMNNLKTEDTAMYYCVRHGNFGNSYISYWAYWGQGTLVTVSA
VL: QAVVTQESALTTSPGETVTLTCRSSTGAVTTNNYANWVQEKPDHLFTGLIGGTRLSAPGVPARFSGSLIGDKAALTITGAQTEDEAIYFCVLWYSNLWVFGGGTKLTVL
B11: CD3-19 (antibody, V domains shown)
VH: B10 VH with T31S, I64D, I109L
VL: B10 VL with R23D, N32S, R54Q, L55R
B12: 19-15 (antibody, V domains shown)
VH: B10 VH with I109L
VL: B10 VL with R23Q, R54K, L55Q, S56R
B13: 19-26 (antibody, V domains shown)
VH: B10 VH with I64D, Y111W
VL: B10 VL with R23K, N32S, R54N, S56H, V91A

Target: T1, monkey CD3 epsilon
Assay: SPR

Kd [nM] | Binder
0.777 | B1
0.616 | B2
5.84 | B3
0.192 | B4
2.27 | B5
0.591 | B6

Target: T2, human CD3 epsilon
Assay: SPR

Kd [nM] | Binder
5.6 | B7
1.79 | B8
1.99 | B9

Target: T2, human CD3 epsilon
Assay: SPR
Remark: another data set of the same source

Kd [nM] | Binder
0.00628 | B10
0.222 | B11
0.143 | B12
0.184 | B13

Target: T1, monkey CD3 epsilon
Assay: SPR
Remark: another data set of the same source

Kd [nM] | Binder
0.00379 | B10
0.347 | B11
0.232 | B12
0.237 | B13

Target: T2, human CD3 epsilon
Assay: SPR
Remark: another data set of the same source

Kd [nM] | Binder
0.104 | B1
0.0967 | B2
0.516 | B3
0.864 | B4
3.95 | B5
0.205 | B6
